In patent US12226476B2, “Helper epitope peptide and application thereof” (CHINA PHARMACEUTICAL UNIVERSITY, priority 2018, dated 2025):
Non-standard residues stand in square brackets, D forms with d. Phe(4-NO2) = N[C@@H](Cc1ccc([N+](=O)[O-])cc1)C(=O)O

System: EPCAM
Experiment: Antibody titer in serum of immunized mice, indirect ELISA
Format: in vivo
Settings: FIG. 16; compared with the EPCAM group and the EPCAM-PADRE group; mice immunized subcutaneously, 50 μg, Freund's adjuvant
Method: The protocol is as follows: • (1) The helper epitope was connected to individual antigens or antigen epitope with the linking peptide to construct multiple fusion antigens. The sequence of the linking peptide is GPSL (i.e. Gly-Pro-Ser-Leu) (SEQ ID NO:51). • (2) The fusion antigens from (1) were emulsified adequately with complete Freund's adjuvant of the same volume. Then to immunize mice via subcutaneous injection with the emulsion at the dose of 50 μg per mouse. The strains of experimental mice including C57, Fvb and Balb/C. After 7 days and 14 days of first immunization, the fusion antigens from (1) were emulsified adequately with incomplete Freund's adjuvant of the same volume and then to immunize mice via subcutaneous injection with the emulsion at the dose of 50 μg per mouse. • (3) There are two detection methods. One is to obtain the orbital blood of immunized mice on 7, 14, 21 and 28 day respectively, centrifuge the whole blood to get the serum. Then the antibody titer is detected by indirect ELISA. The other one is: one week after the last immunization, the mice are killed to get the spleen. PBMC (peripheral blood mononuclear cells) are isolated, and the CTL-mediated cytotoxicity is detected by LDH (lactate dehydrogenase) kit.
The first step was to construct the fusion antigen. According to each fusion antigen, C57BL/6 female mice aged 6-8 weeks were randomly divided into three groups with 6 mice in each group. They were PBS group, existing antigen or antigen epitope group, antigen-PADRE or antigen epitope-PADRE group, and vaccine group containing fusion antigen.
In the second step, using fusion antigen to immunize mice via subcutaneous injection for 3 times […] 50 μg each time. Mixed with Freund's adjuvant of the same volume.
Method 1: The whole blood was collected every week after immunization and centrifugated at 6000 rpm for 20 min to obtain the serum for a total of 4 weeks. Antibody titers were detected by indirect ELISA as follows: • (1) Coating: the existing antigen or antigen epitope was diluted to 5 μg/mL with coating solution. Then the 100 μL mixed solution was added into each well of enzyme immunoassay test strip, and incubated in 37° C. incubator for 2 h; • (2) use PBST to wash each well 5 times for 5 min each time; • (3) Sealing: 150 μL locking solution was added to each well of the enzyme immunoassay test strip and incubated at 4° C. overnight. • (4) Repeat step (2); • (5) Incubation first antibody: the collected mouse serum was diluted with antibody diluent. Then the 100 μL mixed solution was added into each well, and incubated at 37° C. for 2 h; • (6) Repeat step (2); • (7) Incubating secondary antibodies: HRP-GOAT Anti-mouse IgG was diluted with antibody dilution in the ratio of 1:10000, and 100 μL dilution was added to each well, and incubated at 37° C. for 45 min; • (8) Repeat step (2); • (9) Substrate addition: 100 μL TMB substrate reaction solution was added into each well of enzyme label, and incubated at 37° C. for 15 min in darkness. • (10) Termination reaction: 50 μL 2M H2SO4 was added into each well to terminate the reaction. • (11) Color development: the absorbance value of the sample in each well was detected at 450/630 nm.

B1: EPCAM-3 ? 11pPhe-PADRE: fusion antigen: EPCAM linked via GPSL to helper epitope SEQ ID NO: 17 (protein)
chain: QEECVCENYKLAVNCFVNNNRQCQCTSVGAQNTVICSKLAAKCLVMKAEMNGSKLGRRAKPEGALQNNDGLYDPDCDESGLFKAKQCNGTSMCWCVNTAGVRRTDKDTEITCSERVRTYWIIIELKHKAREKPYDSKSLRTALQKEITTRYQLDPKFITSILYENNVITIDLVQNSSQKTQNDVDIADVAYYFEKDVKGESLFHSKKMDLTVNGEQLDLDPGQTLIYYVDEKAPEFSMQGLKGPSLAK[Phe(4-NO2)]VAAWTLK[Phe(4-NO2)]AA
antibody titers: increased significantly
